34 molecules from patent US20240092890A1 (JUNTENDO EDUCATIONAL FOUNDATION, published 2024) can be followed below.

Positions count from the first letter of the chain named.

As a reminder, the Kd is the free concentration of one partner at which half of the binding sites on the other are occupied at equilibrium, for simple one-to-one binding. Read a high Kd as a looser complex.

Experiment [1] addresses T1, protein having an Fc region and a His-tag added to the N-terminus of SEQ ID NO: 1.
T1 construct: also called mutant CALR protein (antigen of the BLItz measurement); not shown: Fc region and His-tag at the N-terminus
T1 chain: RRMMRTKMRMRRM
The experiment is described as follows: BLItz biolayer interferometry, Fc/His-SEQ ID NO: 1 protein on the biosensor. The protocol: As another method, measurements were performed using the molecular interaction analysis system BLItz (ForteBio), which applies biolayer interferometry […]. Specifically, a protein having an Fc region and a His-tag added to the N-terminus of SEQ ID NO: 1 was immobilized at a concentration of 0.1 mg/mL using the Anti-Penta-HIS or ProteinA biosensor (ForteBio). Subsequently, the antibodies 1 to 114 made were prepared at a concentration of 500, 100, and 50 nM and reacted to acquire the dissociation constant.
In general terms: Biolayer interferometry detects binding as a change in optical thickness at a sensor tip.

For experiment [2], the target named is T2, Ins 5 type mutant CALR protein on UT-7/TPO CALR Ins 5 cells (UniProt P27797 18-417).
T2 sequence (looked up): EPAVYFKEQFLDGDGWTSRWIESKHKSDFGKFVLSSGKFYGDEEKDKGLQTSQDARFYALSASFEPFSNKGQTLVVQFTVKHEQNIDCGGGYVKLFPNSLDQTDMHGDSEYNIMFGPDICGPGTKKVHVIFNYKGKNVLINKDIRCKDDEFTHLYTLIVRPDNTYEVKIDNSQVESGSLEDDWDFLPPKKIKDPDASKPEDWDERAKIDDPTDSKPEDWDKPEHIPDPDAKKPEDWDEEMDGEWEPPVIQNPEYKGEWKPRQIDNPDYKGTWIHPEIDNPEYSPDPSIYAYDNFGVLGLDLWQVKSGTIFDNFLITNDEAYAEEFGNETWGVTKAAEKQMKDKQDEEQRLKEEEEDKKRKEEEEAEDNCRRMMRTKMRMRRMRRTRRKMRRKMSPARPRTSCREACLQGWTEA
The experiment is described as follows: cell-based or functional assay.

B1: Antibody 112 (bispecific antibody, human IgG1, kappa, L234A L235A)
chain 1: not shown
chain 2: DIQMTQSPSSLSASVGDRVTITCLASEDIYSYLAWYQQKPGKAPKLLIFAANRLQDGVPSRFSGSGSGTDFTLTISSLQPEDFATYYCLQGSKFPYTFGPGTKVDIKGGGGSGGGGSGGGGSQVQLVQSGAEVKKPGSSVKVSCKASGYTFTRNFIHWIRQAPGQGLEWIGWIFPGDADTEYNQKFSGRATITADKSTSTAYMELSSLRSEDTAVYYCARGNYNYEYFDYWGQGTMVTVSSDKTHTCPPCPAPEAAGGPSVFLFPPKPKDTLMISRTPEVTCVVVDVSHEDPEVKFNWYVDGVEVHNAKTKPREEQYNSTYRVVSVLTVLHQDWLNGKEYKCKVSNKALPAPIEKTISKAKGQPREPQVCTLPPSREEMTKNQVSLSCAVKGFYPSDIAVEWESNGQPENNYKTTPPVLDSDGSFFLVSKLTVDKSRWQQGNVFSCSVMHEALHNHYTQKSLSLSPGK
chain 3: DIQMTQSPSSLSASVGDRVTITCLASEDIYSYLAWYQQKPGKAPKLLIFAANRLQDGVPSRFSGSGSGTDFTLTISSLQPEDFATYYCLQGSKFPYTFGPGTKVDIKRTVAAPSVFIFPPSDEQLKSGTASVVCLLNNFYPREAKVQWKVDNALQSGNSQESVTEQDSKDSTYSLSSTLTLSKADYEKHKVYACEVTHQGLSSPVTKSFNRGECGGGGSGGGGSQVQLVQSGGGVVQPGRSLRLSCKASGYTFTRYTMHWVRQAPGKGLEWIGYINPSRGYTNYNQKVKDRFTISRDNSKNTAFLQMDSLRPEDTGVYFCARYYDDHYSLDYWGQGTPVTVSSGGGGSGGGGSGGGGSDIQMTQSPSSLSASVGDRVTITCSASSSVSYMNWYQQTPGKAPKRWIYDTSKLASGVPSRFSGSGSGTDYTFTISSLQPEDIATYYCQQWSSNPFTFGQGTKLQITR
Turning to B1, in experiment [1], the Kd is < 1 pM.

B2: Antibody 113 (bispecific antibody, human IgG1, kappa, L234A L235A)
chain 1: not shown
chain 2: B1 chain 2
chain 3: B1 chain 3 with D56S
Regarding B2, binding in experiment [1] was put at a Kd of 32.4 pM. In other words, the picomolar range.

B3: Antibody 62 (bispecific antibody)
chain 1: not shown
chain 2: DIQMTQSPSFVSASVGDRVTITCLASEDIYSYLAWYQQKPGKAPKLLIFAANRLQDGVPSRFSGGGSGTGFTLTISSLQPEDFATYFCLQGSKFPYTFGQGTKLEINRTVAAPSVFIFPPSDEQLKSGTASVVCLLNNFYPREAKVQWKVDNALQSGNSQESVTEQDSKDSTYSLSSTLTLSKADYEKHKVYACEVTHQGLSSPVTKSFNRGEC
In the case of B3, the “EC50 of cytotoxic activity (pM)” value in experiment [2] is 91 pM. For the same molecule, the Kd in experiment [1] is < 1 pM.

B4: Antibody 76 (bispecific antibody)
chain 1: not shown
chain 2: B3 chain 2 with D56S, N107K
Regarding B4, the “EC50 of cytotoxic activity (pM)” value in experiment [2] stood at 300 pM. The Kd in experiment [1] is < 1 pM.

B5: Antibody 58 (bispecific antibody)
chain 1: not shown
chain 2: B3 chain 2
As for B5, the “EC50 of cytotoxic activity (pM)” value in experiment [2] turned out to be 1530 pM. Also, the Kd in experiment [1] is < 1 pM.

B6: Antibody 72 (bispecific antibody)
chain 1: not shown
chain 2: B3 chain 2 with D56S
For B6, in experiment [2], the “EC50 of cytotoxic activity (pM)” value was determined as 93 pM. For the same molecule, the dissociation constant (Kd) in experiment [1] is < 1 pM.

B7: Antibody 98 (bispecific antibody)
chain 1: not shown
chain 2: B3 chain 2 with F10S, V11L, G65S, G70D, F87Y, Q100P, L104V, E105D, N107K
With B7, in experiment [1], the dissociation constant Kd was < 1 pM.

B8: Antibody 59 (bispecific antibody)
chain 1: not shown
chain 2: B3 chain 2
Take B8: the “EC50 of cytotoxic activity (pM)” value in experiment [2] came out at 469 pM. Further, the Kd in experiment [1] was < 1 pM.

B9: Antibody 97 (bispecific antibody)
chain 1: not shown
chain 2: B3 chain 2 with F10S, V11L, G65S, G70D, F87Y, Q100P, L104V, E105D, N107K
Regarding B9, the Kd in experiment [1] was < 1 pM.

B10: Antibody 96 (bispecific antibody)
chain 1: not shown
chain 2: B3 chain 2 with F10S, V11L, G65S, G70D, F87Y, Q100P, L104V, E105D, N107K
With B10, the Kd in experiment [1] was < 1 pM.

B11: Antibody 99 (bispecific antibody)
chain 1: not shown
chain 2: B3 chain 2 with F10S, V11L, G65S, G70D, F87Y, Q100P, L104V, E105D, N107K
Regarding B11, the dissociation constant (Kd) in experiment [1] was < 1 pM.

B12: Antibody 78 (bispecific antibody)
chain 1: not shown
chain 2: B3 chain 2 with D56S, N107K
On to B12, for which, in experiment [2], the “EC50 of cytotoxic activity (pM)” value was 63 pM. For the same molecule, in experiment [1], the Kd was < 1 pM.

B13: Antibody 57 (bispecific antibody)
chain 1: not shown
chain 2: B3 chain 2
Take B13: the “EC50 of cytotoxic activity (pM)” value in experiment [2] amounted to 398 pM. In addition, the Kd in experiment [1] was < 1 pM.

B14: Antibody 75 (bispecific antibody)
chain 1: not shown
chain 2: B3 chain 2 with D56S, N107K
For B14, the “EC50 of cytotoxic activity (pM)” value in experiment [2] came to 77 pM. Moreover, the Kd in experiment [1] was < 1 pM.

B15: Antibody 69 (bispecific antibody)
chain 1: not shown
chain 2: B3 chain 2 with D56S
As for B15, the “EC50 of cytotoxic activity (pM)” value in experiment [2] was 162 pM. In experiment [1], the equilibrium dissociation constant (Kd) was < 1 pM.

B16: Antibody 79 (bispecific antibody)
chain 1: not shown
chain 2: B3 chain 2 with N107K
As for B16, in experiment [1], the Kd was < 1 pM.

B17: Antibody 61 (bispecific antibody)
chain 1: not shown
chain 2: B3 chain 2
Consider B17, for which, in experiment [2], the “EC50 of cytotoxic activity (pM)” value worked out at 9760 pM. Moreover, the Kd in experiment [1] was < 1 pM.

B18: Antibody 65 (bispecific antibody)
chain 1: not shown
chain 2: B3 chain 2
As to B18, in experiment [2], the “EC50 of cytotoxic activity (pM)” value was found to be 397 pM. Besides, the dissociation constant Kd in experiment [1] is < 1 pM.

B19: Antibody 66 (bispecific antibody)
chain 1: not shown
chain 2: B3 chain 2
Turning to B19, the “EC50 of cytotoxic activity (pM)” value in experiment [2] was determined as 115 pM. In experiment [1], the dissociation constant (Kd) is < 1 pM.

B20: Antibody 95 (bispecific antibody)
chain 1: not shown
chain 2: B3 chain 2 with F10S, V11L, G65S, G70D, F87Y, Q100P, L104V, E105D, N107K
For B20, the dissociation constant Kd in experiment [1] was < 1 pM.

B21: Antibody 67 (bispecific antibody)
chain 1: not shown
chain 2: B3 chain 2
As for B21, in experiment [2], the “EC50 of cytotoxic activity (pM)” value worked out at 5900 pM. Further, the dissociation constant (Kd) in experiment [1] is < 1 pM.

B22: Antibody 63 (bispecific antibody)
chain 1: not shown
chain 2: B3 chain 2
In the case of B22, in experiment [2], the “EC50 of cytotoxic activity (pM)” value was 197 pM. In experiment [1], this molecule registered a Kd of 262 pM.

B23: Antibody 81 (bispecific antibody)
chain 1: not shown
chain 2: B3 chain 2 with F10S, V11L, G65S, G70D, F87Y, Q100P, L104V, E105D, N107K
Turning to B23, the Kd in experiment [1] is < 1 pM.

B24: Antibody 87 (bispecific antibody)
chain 1: not shown
chain 2: B3 chain 2 with F10S, V11L, D56S, G65S, G70D, F87Y, Q100P, L104V, E105D, N107K
Take B24: the Kd in experiment [1] was < 1 pM.

B25: Antibody 68 (bispecific antibody)
chain 1: not shown
chain 2: B3 chain 2 with D56S
Take B25: in experiment [2], the “EC50 of cytotoxic activity (pM)” value is 27 pM. Besides, the Kd in experiment [1] is < 1 pM.

B26: Antibody 93 (bispecific antibody)
chain 1: not shown
chain 2: B3 chain 2 with F10S, V11L, D56S, G65S, G70D, F87Y, Q100P, L104V, E105D, N107K
With B26, the Kd in experiment [1] was < 1 pM.

B27: Antibody 77 (bispecific antibody)
chain 1: not shown
chain 2: B3 chain 2 with D56S, N107K
B27: the “EC50 of cytotoxic activity (pM)” value in experiment [2] worked out at 129 pM. Also, the dissociation constant Kd in experiment [1] is < 1 pM.

B28: Antibody 56 (bispecific antibody)
chain 1: not shown
chain 2: B3 chain 2
Take B28: in experiment [2], the “EC50 of cytotoxic activity (pM)” value is 45 pM. Further, in experiment [1], the Kd is < 1 pM.

B29: Antibody 64 (bispecific antibody)
chain 1: not shown
chain 2: B3 chain 2
With B29, the “EC50 of cytotoxic activity (pM)” value in experiment [2] was found to be 829 pM. Besides, the dissociation constant Kd in experiment [1] is < 1 pM.

B30: Antibody 71 (bispecific antibody)
chain 1: not shown
chain 2: B3 chain 2 with D56S
As for B30, in experiment [2], the “EC50 of cytotoxic activity (pM)” value turned out to be 448 pM. In experiment [1], this molecule yielded a dissociation constant Kd of 554 pM.

B31: Antibody 73 (bispecific antibody)
chain 1: not shown
chain 2: B3 chain 2 with D56S
B31: the Kd in experiment [1] was < 1 pM.

B32: Antibody 74 (bispecific antibody)
chain 1: not shown
chain 2: B3 chain 2 with D56S, N107K
In the case of B32, the “EC50 of cytotoxic activity (pM)” value in experiment [2] came out at 31 pM. For the same molecule, the Kd in experiment [1] is < 1 pM.

B33: Antibody 60 (bispecific antibody)
chain 1: not shown
chain 2: B3 chain 2
Take B33: the “EC50 of cytotoxic activity (pM)” value in experiment [2] turned out to be 77 pM. Also, the Kd in experiment [1] is < 1 pM.

B34: Antibody 70 (bispecific antibody)
chain 1: not shown
chain 2: B3 chain 2 with D56S
Turning to B34, in experiment [2], the “EC50 of cytotoxic activity (pM)” value came to 507 pM. The dissociation constant (Kd) in experiment [1] was < 1 pM.
